# Reference: patent US20040053819A1
# Molecular target: human GLP-1 receptor (human) (UniProt P43220)
# Assay: cell-based or functional assay
# Chain of human GLP-1 receptor (human) (P43220 24-463): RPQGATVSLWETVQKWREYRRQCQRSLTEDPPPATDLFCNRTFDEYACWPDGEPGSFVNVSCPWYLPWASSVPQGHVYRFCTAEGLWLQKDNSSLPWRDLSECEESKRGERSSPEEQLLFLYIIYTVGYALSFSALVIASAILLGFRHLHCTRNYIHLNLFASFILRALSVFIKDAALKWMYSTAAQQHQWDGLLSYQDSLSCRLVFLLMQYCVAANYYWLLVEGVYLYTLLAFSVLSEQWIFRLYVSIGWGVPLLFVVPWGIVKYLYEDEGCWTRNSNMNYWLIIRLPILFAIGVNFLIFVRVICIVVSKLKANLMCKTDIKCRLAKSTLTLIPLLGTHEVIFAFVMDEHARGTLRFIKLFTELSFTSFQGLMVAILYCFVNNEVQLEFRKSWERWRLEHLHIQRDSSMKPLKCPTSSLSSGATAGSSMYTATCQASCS
row,"In vitro activity relative to Val^8-GLP-1(7-37)OH (EC50 potency, CRE-BLAM β-lactamase reporter in HEK-293 cells expressing human GLP-1 receptor) (fold relative to Val^8-GLP-1(7-37)OH)",Substance
1,1.92,Arg^34Lys^26-(N-ε-(γ-Glu(N-α-hexadecanoyl)))-GLP-1(7-37) (peptide)
2,2.06,GLP-1(7-37)OH (peptide)
3,1.67,Gly^8-GLP-1(7-37)OH (peptide)
4,1,Val^8-Ala^27-GLP-1(7-37)OH (peptide)
5,1.47,Val^8-Arg^26-GLP-1(7-37)OH (peptide)
6,1.06,Val^8-GLP-1(7-36)NH2 (peptide)
7,1,Val^8-GLP-1(7-37)OH (peptide)
8,3.33,Val^8-Glu^22-GLP-1(7-37)OH (peptide)
9,1.13,Val^8-Leu^16-GLP-1(7-37)OH (peptide)
10,1.22,Val^8-Lys^22-GLP-1(7-37)OH (peptide)
11,1.07,Val^8-Trp^12-GLP-1(7-37)OH (peptide)
12,1.73,Val^8-Tyr^12-GLP-1(7-37)OH (peptide)
